The text below walks through data of patent publication US20250188133A1, “CHIMERIC BACTERIOCINS AND METHOD FOR THE CONTROL OF PSEUDOMONAS” (priority 2022, published 2025).

Assay type in all cases: cell-based
The subject of one experiment is P. aeruginosa strains. Nature of the experiment: agar disc-diffusion assay, panel of 25 strains. The note with it: panel of 25 P. aeruginosa strains, in words. As to the method: (§1) Overnight P. aeruginosa cultures grown in CAA medium were equalized till OD595=1.0 in CAA and diluted 100×. Sterile cotton swab was briefly submerged in diluted microbial suspension, removing the excess of liquid by pressing it against the container wall. The swab was used for evenly streaking bacteria on plates containing growth medium with CAA solid agar (1.5%). 6 mm diameter sterile Whatman discs were placed on soft-agar and 0.3-30 μg of chimeric pyocins were spotted to paper disks. The plates were incubated overnight at 37° C. and bacteriocin inhibition zones were observed.
(§2) Next, all 25 P. aeruginosa strains were subjected to agar disc-diffusion assay by spotting different amounts of purified pyocin S5 (0.3 μg, 3 μg and 30 μg) on bacteria lawns. Six P. aeruginosa strains were resistant to pyocin S5. Four of these six strains were pyocin S5 and immunity protein-encoding strains—PA14, PAO1, […] and NCTC 13921. Two cystic fibrosis isolates, 12-35708 and 12-29165 were also completely resistant to pyocin S5, despite the absence of S5, or S5 immunity protein coding genes. […] Turbid inhibition zones were detected when 3 μg and 30 μg of S5 were spotted on the lawn of these strains (Table 1, FIG. 3).
Background: Agar diffusion results depend on both activity and mobility in agar.

Another experiment concerns P. aeruginosa EY76. Description: agar disc-diffusion assay. To be noted: strain EY76; 0.3, 3 and 30 μg of protein spotted on discs on CAA agar lawn, overnight. As to the method:
as §1, §2

A further experiment concerns P. aeruginosa Bu002. Description: agar disc-diffusion assay. To be noted: strain Bu002; 0.3, 3 and 30 μg of protein spotted on discs on CAA agar lawn, overnight. As to the method:
as §1, §2

The test system of another experiment is P. aeruginosa BR79. Description: agar disc-diffusion assay. To be noted: strain BR79; 0.3, 3 and 30 μg of protein spotted on discs on CAA agar lawn, overnight. The procedure:
as §1, §2

For a further experiment, the system named is P. aeruginosa HP41. Nature of the experiment: agar disc-diffusion assay. The note with it: strain HP41; 0.3, 3 and 30 μg of protein spotted on discs on CAA agar lawn, overnight. As to the method:
as §1, §2

The subject of the next experiment is P. aeruginosa HP52. Nature of the experiment: agar disc-diffusion assay. To be noted: strain HP52; 0.3, 3 and 30 μg of protein spotted on discs on CAA agar lawn, overnight. The procedure:
as §1, §2

The next experiment concerns P. aeruginosa BL77. Description: agar disc-diffusion assay. The note with it: strain BL77; 0.3, 3 and 30 μg of protein spotted on discs on CAA agar lawn, overnight. The procedure: as §1, §2
A further experiment concerns P. aeruginosa 13-18499. Nature of the experiment: agar disc-diffusion assay. The note with it: strain 13-18499; 0.3, 3 and 30 μg of protein spotted on discs on CAA agar lawn, overnight. As to the method: as §1, §2
The test system of the next experiment is P. aeruginosa PAO1. Nature of the experiment: agar disc-diffusion assay. The note with it: strain PAO1; 0.3, 3 and 30 μg of protein spotted on discs on CAA agar lawn, overnight. The procedure:
as §1, §2

In the next experiment the test system is P. aeruginosa HP1. Nature of the experiment: agar disc-diffusion assay. To be noted: strain HP1; 0.3, 3 and 30 μg of protein spotted on discs on CAA agar lawn, overnight. The procedure:
as §1, §2

In a further experiment the test system is P. aeruginosa BI80. Description: agar disc-diffusion assay. The note with it: strain BI80; 0.3, 3 and 30 μg of protein spotted on discs on CAA agar lawn, overnight. The procedure:
as §1, §2

The subject of a further experiment is P. aeruginosa PA14. Nature of the experiment: agar disc-diffusion assay. To be noted: strain PA14; 0.3, 3 and 30 μg of protein spotted on discs on CAA agar lawn, overnight. The procedure: as §1, §2
The next experiment relates to P. aeruginosa NCTC 13437. Nature of the experiment: agar disc-diffusion assay. The note with it: strain NCTC 13437; 0.3, 3 and 30 μg of protein spotted on discs on CAA agar lawn, overnight. As to the method:
as §1, §2

The next experiment relates to P. aeruginosa HP75. Description: agar disc-diffusion assay. The note with it: strain HP75; 0.3, 3 and 30 μg of protein spotted on discs on CAA agar lawn, overnight. As to the method:
as §1, §2

The subject of a further experiment is P. aeruginosa HP7. Nature of the experiment: agar disc-diffusion assay. To be noted: strain HP7; 0.3, 3 and 30 μg of protein spotted on discs on CAA agar lawn, overnight. As to the method:
as §1, §2

The subject of another experiment is P. aeruginosa ATCC 29260. Description: agar disc-diffusion assay. To be noted: strain ATCC 29260; 0.3, 3 and 30 μg of protein spotted on discs on CAA agar lawn, overnight. The procedure: as §1, §2
A further experiment relates to P. aeruginosa HP6. Nature of the experiment: agar disc-diffusion assay. To be noted: strain HP6; 0.3, 3 and 30 μg of protein spotted on discs on CAA agar lawn, overnight. As to the method:
as §1, §2

Experiment [1] has as its system P. aeruginosa Boston 41501 (ATCC 27853). Nature of the experiment: agar disc-diffusion assay. To be noted: strain Boston; 0.3, 3 and 30 μg of protein spotted on discs on CAA agar lawn, overnight. As to the method: as §1, §2
The subject of a further experiment is P. aeruginosa UR78. Description: agar disc-diffusion assay. To be noted: strain UR78; 0.3, 3 and 30 μg of protein spotted on discs on CAA agar lawn, overnight. As to the method:
as §1, §2

In another experiment the test system is P. aeruginosa Pr335. Nature of the experiment: agar disc-diffusion assay. To be noted: strain Pr335; 0.3, 3 and 30 μg of protein spotted on discs on CAA agar lawn, overnight. The procedure:
as §1, §2

The next experiment concerns P. aeruginosa A19. Nature of the experiment: agar disc-diffusion assay. The note with it: strain A19; 0.3, 3 and 30 μg of protein spotted on discs on CAA agar lawn, overnight. As to the method: as §1, §2
The subject of another experiment is P. aeruginosa HP40. Description: agar disc-diffusion assay. The note with it: strain HP40; 0.3, 3 and 30 μg of protein spotted on discs on CAA agar lawn, overnight. The procedure: as §1, §2
A further experiment concerns P. aeruginosa NCTC 13921. Nature of the experiment: agar disc-diffusion assay. To be noted: strain NCTC 13921; 0.3, 3 and 30 μg of protein spotted on discs on CAA agar lawn, overnight. The procedure:
as §1, §2

B1: S5-Pflu373: chimeric bacteriocin SEQ ID NO: 13: pyocin S5 first segment fused to P. fluorescens Pflu373 killing domain (protein)
chain: MSNDNEVPGSMVIVAQGPDDQYAYEVPPIDSAAVAGNMFGDLIQREIYLQKNIYYPVRSIFEQGTKEKKEINKKVSDQVDGLLKQITQGKREATRQERVDVMSAVLHKMESDLEGYKKTFTKGPFIDYEKQSSLSIYEAWVKIWEKNSWEERKKYPFQQLVRDELERAVAYYKQDSLSEAVKVLRQELNKQKALKEKEDLSQLERDYRTRKANLEMKVQSELDQAGSALPPLVSPTPEQWLERATRLVTQAIADKKQLQTTNNTLIKNSPTPLEKQKAIYNGELLVDEIASLQARLVKLNAETTRRRTEAEEQAKAEEEIKGAIKFTADFYKEIGEKYGAQMTASATDLAETAKGKTLRSAEEALKAFDQYKDHLDKKFSAADRAAIVNALDSLDRAELAKNLNLFAKGFGYTSKAFDVYDLVEEVKKSYASGDWNNTALKVETLFAGSAATGLIAFAFGVTVSTPVGIVAFALIMALVSAYIDDAHVKQFNDALDAILP
modifications: S5-Pflu373
Consider B1, for which the “activity spectrum / profile in agar disc diffusion assay” value in the experiment on P. aeruginosa strains was “good activity profile, similar to S5-Pflu095”. Moreover, the “Activity in agar disc-diffusion assay” value in the experiment on P. aeruginosa EY76 was “*** (activity detected with 0.3 μg of protein)”; with P. aeruginosa Bu002, “*** (activity detected with 0.3 μg of protein)”; in the experiment on P. aeruginosa BR79, “** (activity detected with 3 μg of protein)”; with P. aeruginosa HP41, “*** (activity detected with 0.3 μg of protein)”; in the experiment on P. aeruginosa HP52, “** (activity detected with 3 μg of protein)”; in the experiment with P. aeruginosa BL77 it was “** (activity detected with 3 μg of protein)”. For the same molecule, the “Activity in agar disc-diffusion assay” value is listed as “** (activity detected with 3 μg of protein)” in the experiment on P. aeruginosa 13-18499; “*** (activity detected with 0.3 μg of protein)” in the experiment on P. aeruginosa PAO1; “*** (activity detected with 0.3 μg of protein)” with P. aeruginosa HP1; “*** (activity detected with 0.3 μg of protein)” in the experiment with P. aeruginosa BI80; “** (activity detected with 3 μg of protein)” in the experiment on P. aeruginosa PA14; “* (activity detected only with 30 μg of protein)” in the experiment on P. aeruginosa NCTC 13437. Moreover, the “Activity in agar disc-diffusion assay” value in the experiment with P. aeruginosa HP75 is “** (activity detected with 3 μg of protein)”; in the experiment with P. aeruginosa HP7, “*** (activity detected with 0.3 μg of protein)”; in the experiment on P. aeruginosa ATCC 29260, “*** (activity detected with 0.3 μg of protein)”; with P. aeruginosa HP6, “*** (activity detected with 0.3 μg of protein)”; in experiment [1], “*** (activity detected with 0.3 μg of protein)”; in the experiment with P. aeruginosa UR78 it was “*** (activity detected with 0.3 μg of protein)”. The “Activity in agar disc-diffusion assay” value is recorded as “*** (activity detected with 0.3 μg of protein)” with P. aeruginosa Pr335, “*** (activity detected with 0.3 μg of protein)” in the experiment on P. aeruginosa A19, “*** (activity detected with 0.3 μg of protein)” in the experiment with P. aeruginosa HP40 and “** (activity detected with 3 μg of protein)” in the experiment on P. aeruginosa NCTC 13921.
